# In US20160237160A1 (Bayer, published 2016):
# T1: TNF-R1 (TNFRSF1A) Fc fusion protein (Human, UniProt P19438 30-211)
# T1 construct: extracellular domain; bought
# T1 sequence (looked up): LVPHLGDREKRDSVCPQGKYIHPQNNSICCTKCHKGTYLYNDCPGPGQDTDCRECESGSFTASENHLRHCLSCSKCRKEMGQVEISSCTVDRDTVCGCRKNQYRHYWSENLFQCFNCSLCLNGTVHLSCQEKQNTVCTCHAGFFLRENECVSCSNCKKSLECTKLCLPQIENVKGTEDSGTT
# T2: DcR3 (TNFRSF6B) Fc fusion protein (Human, UniProt O95407 30-300)
# T2 construct: extracellular domain; bought
# T2 sequence (looked up): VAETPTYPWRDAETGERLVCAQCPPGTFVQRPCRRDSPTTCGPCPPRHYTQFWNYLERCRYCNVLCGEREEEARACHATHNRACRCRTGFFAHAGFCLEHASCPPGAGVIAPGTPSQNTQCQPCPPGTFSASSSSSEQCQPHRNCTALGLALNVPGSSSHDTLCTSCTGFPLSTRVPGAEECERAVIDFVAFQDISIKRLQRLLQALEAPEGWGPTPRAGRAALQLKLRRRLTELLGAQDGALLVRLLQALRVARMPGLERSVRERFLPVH
# T3: BCMA (TNFRSF17) Fc fusion protein (Human, UniProt Q02223 1-54)
# T3 construct: extracellular domain; bought
# T3 sequence (looked up): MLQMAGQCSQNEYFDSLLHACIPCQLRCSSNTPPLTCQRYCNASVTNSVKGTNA
# T4: TACI (TNFRSF13B) Fc fusion protein (Human, UniProt O14836 1-165)
# T4 construct: extracellular domain; bought
# T4 sequence (looked up): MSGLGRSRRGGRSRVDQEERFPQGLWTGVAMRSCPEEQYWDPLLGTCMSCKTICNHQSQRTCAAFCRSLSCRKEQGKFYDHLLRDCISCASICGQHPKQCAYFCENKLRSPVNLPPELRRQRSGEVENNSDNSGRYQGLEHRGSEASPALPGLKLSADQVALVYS
# T5: EDAR Fc fusion protein (Human, UniProt Q9UNE0 27-187)
# T5 construct: extracellular domain; bought
# T5 sequence (looked up): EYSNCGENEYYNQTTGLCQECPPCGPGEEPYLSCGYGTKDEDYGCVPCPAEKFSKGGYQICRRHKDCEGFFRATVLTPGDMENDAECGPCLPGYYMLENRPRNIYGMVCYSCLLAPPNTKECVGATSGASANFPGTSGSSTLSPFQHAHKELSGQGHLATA
# T6: GITR (TNFRSF18) Fc fusion protein (Human, UniProt Q9Y5U5 26-162)
# T6 construct: extracellular domain; bought
# T6 sequence (looked up): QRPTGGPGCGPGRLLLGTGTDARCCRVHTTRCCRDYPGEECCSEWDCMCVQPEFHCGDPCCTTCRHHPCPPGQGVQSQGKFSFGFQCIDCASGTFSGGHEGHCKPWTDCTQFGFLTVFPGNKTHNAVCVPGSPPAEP
# T7: Trail R3 (TNFRSF10C) Fc fusion protein (Human, UniProt O14798 26-221, limits assumed)
# T7 construct: extracellular domain; bought
# T7 sequence (looked up): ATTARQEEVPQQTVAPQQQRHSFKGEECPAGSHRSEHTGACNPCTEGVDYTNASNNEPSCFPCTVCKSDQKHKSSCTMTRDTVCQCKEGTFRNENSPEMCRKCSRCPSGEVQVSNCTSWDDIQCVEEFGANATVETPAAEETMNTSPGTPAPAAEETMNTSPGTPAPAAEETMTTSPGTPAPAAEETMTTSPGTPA
# T8: EDA2R (TNFRSF27) Fc fusion protein (Human, UniProt Q9HAV5 1-138)
# T8 construct: extracellular domain; bought
# T8 sequence (looked up): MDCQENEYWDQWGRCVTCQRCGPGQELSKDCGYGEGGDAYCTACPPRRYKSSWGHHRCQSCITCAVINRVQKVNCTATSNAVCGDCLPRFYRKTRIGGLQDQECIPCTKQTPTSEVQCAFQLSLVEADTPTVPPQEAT
# T9: RELT (TNFRSF19L) Fc fusion protein (Human, UniProt Q969Z4 26-162)
# T9 construct: extracellular domain; bought
# T9 sequence (looked up): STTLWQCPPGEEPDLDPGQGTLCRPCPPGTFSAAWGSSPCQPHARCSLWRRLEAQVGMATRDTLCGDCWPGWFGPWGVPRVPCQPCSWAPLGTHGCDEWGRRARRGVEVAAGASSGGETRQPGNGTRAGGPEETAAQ
# How the values were obtained:
# [1] = target: T1, TNF-R1 (TNFRSF1A) Fc fusion protein; experiment: ELISA, Fc fusion protein coated at 1 µg/ml, TPP-2090 at 75 nM, Amplex Red;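 further: binding reported as ELISA signal intensity in Rfu against a panel of TNF receptor superfamily members presented as Fc fusion proteins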
# From the text: (§1) Shown is the result of an ELISA: Y is “ELISA signal intensity [Rfu]”; X are “TNF receptor superfamily proteins tested (Fc-fusion proteins)”: 1 is “TWEAKR”; 2 is “TWEAKR”; 3 is “Apo-3”; 4 is “Trail-R1”; 5 is “Trail-R2”; 6 is “CD385”; 7 is “CD95”; 8 is “Rank”; 9 is “TNF-R1”; 10 is “TNF-R2”; 11 is “BAFF-R”; 12 is “DcR3”; 13 is “BCMA”; 14 is “TACI”; 15 is “OX40”; 16 is “CD30”; 17 is “CD27”; 18 is “CD40”; 19 is “Osteoprotegerin”; 20 is “EDAR”; 21 is “GITR”; 22 is “HVEM”; 23 is “NGF R”; 24 is “Trail R3”; 25 is “Lymphotioxin B R”; 26 is “Trail R4”; 27 is “EDA2R”; 28 is “TROY”; 29 is “RELT”; 30 is “4-1BB”.
# (§2) To collect dose-response data a serial 3fold dilution of biotinylated IgG starting with a concentration of 2 μM was used as soluble binding partner. Detection was done with anti-hIgG1-HRP and Amplex Red.
# [2] = target: T2, DcR3 (TNFRSF6B) Fc fusion protein; experiment: as above
# From the text: as §1, §2
# [3] = target: T3, BCMA (TNFRSF17) Fc fusion protein; experiment: as above
# From the text: as §1, §2
# [4] = target: T4, TACI (TNFRSF13B) Fc fusion protein; experiment: as above
# From the text: as §1, §2
# [5] = target: T10, CD27 (TNFRSF7) Fc fusion protein (Human, UniProt P26842 20-191); experiment: as above
# T10 construct: extracellular domain; bought
# T10 sequence (P26842 20-191): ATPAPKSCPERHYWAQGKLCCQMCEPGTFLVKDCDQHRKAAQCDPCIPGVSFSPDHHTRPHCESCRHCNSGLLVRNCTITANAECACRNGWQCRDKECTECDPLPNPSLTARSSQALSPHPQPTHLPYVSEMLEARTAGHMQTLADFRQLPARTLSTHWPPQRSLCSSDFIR
# From the text: as §1, §2
# EDAR Fc fusion protein = target: T5, EDAR Fc fusion protein; experiment: as above
# From the text: as §1, §2
# [6] = target: T6, GITR (TNFRSF18) Fc fusion protein; experiment: as above
# From the text: as §1, §2
# [7] = target: T7, Trail R3 (TNFRSF10C) Fc fusion protein; experiment: as above
# From the text: as §1, §2
# [8] = target: T8, EDA2R (TNFRSF27) Fc fusion protein; experiment: as above
# From the text: as §1, §2
# [9] = target: T9, RELT (TNFRSF19L) Fc fusion protein; experiment: as above
# From the text: as §1, §2
# [10] = target: T11, 4-1BB (TNFRSF9) Fc fusion protein (Human, UniProt Q07011 24-186); experiment: as above
# T11 construct: extracellular domain; bought
# T11 sequence (Q07011 24-186): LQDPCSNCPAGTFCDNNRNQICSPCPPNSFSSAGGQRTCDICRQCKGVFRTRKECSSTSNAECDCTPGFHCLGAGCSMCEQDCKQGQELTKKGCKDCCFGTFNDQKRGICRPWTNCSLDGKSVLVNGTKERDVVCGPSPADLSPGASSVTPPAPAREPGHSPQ
# From the text: as §1, §2
# [11] = target: T12, TPP-2614 (TweakR-ECD-34-68-hIgGFc-His-D47A) (human); experiment: ELISA, antibody coated at 1 µg/ml, TWEAKR variant at 250 ng/ml, anti-HIS HRP; normalized by WT; the legend of B does not name the variant, D47A by paragraph 82 and paragraph 368
# T12 construct: also called D47A TWEAKR mutein
# Method: Antibodies were coated (1 μg/ml), TWEAKR variant was added at 250 ng/ml, detection via anti-HIS HRP. […] Antibodies were coated (1 μg/ml), TWEAKR variant was added 250 ng/ml, detection via anti-HIS HRP.
binder,measurement,setting,value
"TPP-2090 (antibody, human IgG1, kappa, V domains shown, Human IgG1) VH: EVQLLESGGGLVQPGGSLRLSCAASGFTFSPYPMIWVRQAPGKGLEWVSYISPSGGSTHYADSVKGRFTISRDNSKNTLYLQMNSLRAEDTAVYYCARGGDTYFDYFDYWGQGTLVTVSS VL: DIQMTQSPSSLSASVGDRVTITCRASQSISGYLNWYQQKPGKAPKLLIYQASSLQSGVPSRFSGSGSGTDFTLTISSLQPEDFATYYCQQSYTSPFITFGQGTKVEIKR",binding result,[1],no binding (tested: 75 nM)
same,binding result,[2],no binding (tested: 75 nM)
same,binding result,[3],no binding (tested: 75 nM)
same,binding result,[4],no binding (tested: 75 nM)
same,binding result,[5],no binding (tested: 75 nM)
same,binding result,EDAR Fc fusion protein,no binding (tested: 75 nM)
same,binding result,[6],no binding (tested: 75 nM)
same,binding result,[7],no binding (tested: 75 nM)
same,binding result,[8],no binding (tested: 75 nM)
same,binding result,[9],no binding (tested: 75 nM)
same,binding result,[10],no binding (tested: 75 nM)
same,binding result,[11],no binding (tested: 250 ng/ml (TWEAKR variant))
